Assays:
Details in all cases: protein: recombinant; label: fluorescein-dT at T8; single-chain dumbbell, 18 bp with central nick, two tetraloops
[1] = biological target: T1, PARP-1 F2 (Homo sapiens, UniProt P09874 103-214); experiment: fluorescence anisotropy; 100; 50 mM Tris-HCl pH 7.0, 150 uM ZnSO4, 4 mM DTT, 25 C; NaCl 0-200 mM (T2, as in cof; 10 nM DNA) or 25 mM (T3 mutants; 25 nM DNA)
[2] = biological target: T2, PARP-1 F1+F2 (24-kDa DBD) (Homo sapiens, UniProt P09874 1-214); experiment: as above
[3] = biological target: T3, DNA ligase III alpha zinc finger (DL3) (UniProt P49916-3 1-117); experiment: fluorescence anisotropy; 20 mM pyrophosphate pH 7.0; more similar to F2 than F1; FA: 50 mM Tris-HCl pH 7, 150 uM ZnSO4, 4 mM DTT, 0-200 mM NaCl, 25 C, 10 nM DNA (mutants 25 nM DNA, 25 mM NaCl); EMSA: 50 mM Tris-HCl pH 7.4, 150 uM ZnSO4, 4 mM DTT, 10% glycerol, RT incubation, gel at 4 C; NMR complexes: 50 mM Tris pH 7.0, 150 uM ZnSO4, 4 mM DTT, 37 C
T3 sequence: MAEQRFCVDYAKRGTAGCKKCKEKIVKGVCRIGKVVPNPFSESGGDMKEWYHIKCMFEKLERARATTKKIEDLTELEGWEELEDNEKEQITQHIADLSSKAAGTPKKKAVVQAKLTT

[4] = biological target: T1, PARP-1 F2; experiment: fluorescence anisotropy; 50; 50 mM Tris-HCl pH 7.0, 150 uM ZnSO4, 4 mM DTT, 25 C; NaCl 0-200 mM (T2, as in cof; 10 nM DNA) or 25 mM (T3 mutants; 25 nM DNA)
[5] = biological target: T2, PARP-1 F1+F2 (24-kDa DBD); experiment: as above
[6] = biological target: T2, PARP-1 F1+F2 (24-kDa DBD); experiment: fluorescence anisotropy; 0; 50 mM Tris-HCl pH 7.0, 150 uM ZnSO4, 4 mM DTT, 25 C; NaCl 0-200 mM (T2, as in cof; 10 nM DNA) or 25 mM (T3 mutants; 25 nM DNA)
[7] = biological target: PARP-1 F2 K141I (Homo sapiens, UniProt P09874 103-214, K141I); experiment: fluorescence anisotropy; 25 mM NaCl, one-site fit; 50 mM Tris-HCl pH 7.0, 150 uM ZnSO4, 4 mM DTT, 25 C; NaCl 0-200 mM (T2, as in cof; 10 nM DNA) or 25 mM (T3 mutants; 25 nM DNA)
[8] = biological target: PARP-1 F2 K197I (Homo sapiens, UniProt P09874 103-214, K197I); experiment: as above
[9] = biological target: PARP-1 F2 W157I (Homo sapiens, UniProt P09874 103-214, W157I); experiment: as above
[10] = biological target: PARP-1 F2 K141I/K142I (Homo sapiens, UniProt P09874 103-214, K141I;K142I); experiment: as above
[11] = biological target: PARP-1 F2 K131I (Homo sapiens, UniProt P09874 103-214, K131I); experiment: as above
[12] = biological target: PARP-1 F2 K119I (Homo sapiens, UniProt P09874 103-214, K119I); experiment: as above
[13] = biological target: PARP-1 F2 K134I (Homo sapiens, UniProt P09874 103-214, K134I); experiment: as above
[14] = biological target: PARP-1 F2 K142I (Homo sapiens, UniProt P09874 103-214, K142I); experiment: as above
Chain of PARP-1 F2 K142I (P09874 103-214 K142I): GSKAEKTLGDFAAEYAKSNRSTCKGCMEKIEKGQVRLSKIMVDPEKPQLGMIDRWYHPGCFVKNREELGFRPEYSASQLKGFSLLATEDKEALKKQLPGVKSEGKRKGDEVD

T2 sequence (P09874 1-214): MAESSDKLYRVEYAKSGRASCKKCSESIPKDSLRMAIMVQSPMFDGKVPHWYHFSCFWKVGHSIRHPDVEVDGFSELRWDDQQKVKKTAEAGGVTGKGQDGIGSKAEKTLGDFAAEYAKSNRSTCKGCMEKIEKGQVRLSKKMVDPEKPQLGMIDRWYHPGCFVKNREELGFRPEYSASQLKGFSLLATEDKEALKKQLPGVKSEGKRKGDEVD
T1 sequence (P09874 103-214): as the sequence (P09874 103-214 K142I) above, with I40K counted along it
Chain of PARP-1 F2 K131I (P09874 103-214 K131I): as the sequence (P09874 103-214 K142I) above, with K29I, I40K counted along it
Chain of PARP-1 F2 K119I (P09874 103-214 K119I): as the sequence (P09874 103-214 K142I) above, with K17I, I40K counted along it
Chain of PARP-1 F2 K134I (P09874 103-214 K134I): as the sequence (P09874 103-214 K142I) above, with K32I, I40K counted along it
Chain of PARP-1 F2 K141I/K142I (P09874 103-214 K141I/K142I): as the sequence (P09874 103-214 K142I) above, with K39I counted along it
Chain of PARP-1 F2 K197I (P09874 103-214 K197I): as the sequence (P09874 103-214 K142I) above, with I40K, K95I counted along it
Chain of PARP-1 F2 K141I (P09874 103-214 K141I): as the sequence (P09874 103-214 K142I) above, with K39I, I40K counted along it
Chain of PARP-1 F2 W157I (P09874 103-214 W157I): as the sequence (P09874 103-214 K142I) above, with I40K, W55I counted along it

Binder: CGGTCGATCGTAAGATCGACCGGCGCTGGAGCTTGCTCCAGCGC (structured_DNA, 5'-phosphate) [44-nt nicked dumbbell, 5'-phosphate, fluorescein-dT]
- Kd [1]: 146 nM
- Kd [2]: 9.37 nM
- binding result [3]: binds
- Kd [4]: 130 nM
- Kd [5]: 8.02 nM
- Kd [6]: 5.75 nM
- Kd [7]: 1490 nM
- Kd [8]: 664 nM
- Kd [9]: 4930 nM
- Kd [10]: 3930 nM
- Kd [11]: 1570 nM
- Kd [12]: 4550 nM
- Kd [13]: 3330 nM
- Kd [14]: 1180 nM

Source: paper PMC3094755, “The DNA-Binding Domain of Human PARP-1 Interacts with DNA Single-Strand Breaks as a Monomer through Its Second Zinc Finger”
